US20240400708A1
Residue numbers refer to the chain shown, from its start. Names and notes keep the numbering of the source.

B1: feline IgG1a Fc mutant Q311R, S428L (antibody, part only; not given: Variable domains, not shown: another chain or arm of the molecule; small tags and cut ends)
constant: ASTTAPSVFPLAPSCGTTSGATVALACLVLGYFPEPVTVSWNSGALTSGVHTFPAVLQASGLYSLSSMVTVPSSRWLSDTFTCNVAHPPSNTKVDKTVRKTDHPPGPKPCDCPKCPPPEMLGGPSIFIFPPKPKDTLSISRTPEVTCLVVDLGPDDSDVQITWFVDNTQVYTAKTSPREEQFNSTYRVVSVLPILHRDWLKGKEFKCKVNSKSLPSPIERTISKAKGQPHEPQVYVLPPAQEELSRNKVSVTCLIKSFHPPDIAVEWEITGQPEPENNYRTTPPQLDSDGTYFVYSKLSVDRSHWQRGNTYTCSVLHEALHSHHTQKSLTQSPGK
B2: feline IgG1a Fc mutant Q311W, S428M (antibody, part only; not given: Variable domains, not shown: another chain or arm of the molecule; small tags and cut ends)
constant: B1 constant with R197W, L316M
B3: feline IgG1a Fc mutant Q311H, S428L (antibody, part only; not given: Variable domains, not shown: another chain or arm of the molecule; small tags and cut ends)
constant: B1 constant with R197H
B4: feline IgG1a Fc mutant S428Y, S434R (antibody, part only; not given: Variable domains, not shown: another chain or arm of the molecule; small tags and cut ends)
constant: B1 constant with R197Q, L316Y, S322R
B5: feline IgG1a Fc mutant Q311R, S428Y (antibody, part only; not given: Variable domains, not shown: another chain or arm of the molecule; small tags and cut ends)
constant: B1 constant with L316Y
B6: feline IgG1a Fc mutant Q311W, S428L (antibody, part only; not given: Variable domains, not shown: another chain or arm of the molecule; small tags and cut ends)
constant: B1 constant with R197W
B7: feline IgG1a Fc mutant Q311L, S428Y (antibody, part only; not given: Variable domains, not shown: another chain or arm of the molecule)
constant: B1 constant with R197L, L316Y
B8: feline IgG1a Fc mutant Q311K, S428M (antibody, part only; not given: Variable domains, not shown: another chain or arm of the molecule; small tags and cut ends)
constant: B1 constant with R197K, L316M
B9: feline IgG1a Fc mutant S428L, S252H (antibody, part only; not given: variable domains and light chain, not shown: another chain or arm of the molecule; small tags and cut ends)
constant: B1 constant with S138H, R197Q
B10: feline IgG1a Fc mutant S428L, S252F (antibody, part only; not given: Variable domains, not shown: another chain or arm of the molecule; small tags and cut ends)
constant: B1 constant with S138F, R197Q
B11: feline IgG1a Fc mutant S428M, S252F (antibody, part only; not given: Variable domains, not shown: another chain or arm of the molecule; small tags and cut ends)
constant: B1 constant with S138F, R197Q, L316M
B12: feline IgG1a Fc mutant Q311M, S428Y (antibody, part only; not given: variable domains, not shown: another chain or arm of the molecule; small tags and cut ends)
constant: B1 constant with R197M, L316Y
B13: feline IgG1a Fc mutant S428Y, S434H (antibody, part only; not given: Variable domains, not shown: another chain or arm of the molecule; small tags and cut ends)
constant: B1 constant with R197Q, L316Y, S322H
B14: feline IgG1a Fc mutant Q311W, S428Y (antibody, part only; not given: Variable domains, not shown: another chain or arm of the molecule)
constant: B1 constant with R197W, L316Y
B15: feline IgG1a Fc mutant S428L, S434R (antibody, part only; not given: variable domains and light chain, not shown: another chain or arm of the molecule; small tags and cut ends)
constant: B1 constant with R197Q, S322R
B16: feline IgG1a Fc mutant Q311H, S428M (antibody, part only; not given: Variable domains, not shown: another chain or arm of the molecule; small tags and cut ends)
constant: B1 constant with R197H, L316M
B17: feline IgG1a Fc mutant Q311Y, S428M (antibody, part only; not given: Variable domains, not shown: another chain or arm of the molecule; small tags and cut ends)
constant: B1 constant with R197Y, L316M
B18: feline IgG1a Fc mutant S428M, S434R (antibody, part only; not given: variable domains, not shown: another chain or arm of the molecule; small tags and cut ends)
constant: B1 constant with R197Q, L316M, S322R
B19: feline IgG1a Fc mutant S428Y, S252F (antibody, part only; not given: Variable domains, not shown: another chain or arm of the molecule)
constant: B1 constant with S138F, R197Q, L316Y
B20: feline IgG1a Fc mutant S428M, S434H (antibody, part only; not given: Variable domains, not shown: another chain or arm of the molecule; small tags and cut ends)
constant: B1 constant with R197Q, L316M, S322H
B21: feline IgG1a Fc mutant S428Y, S252Y (antibody, part only; not given: Variable domains, not shown: another chain or arm of the molecule; small tags and cut ends)
constant: B1 constant with S138Y, R197Q, L316Y
B22: feline IgG1a Fc mutant S428L, S434Y (antibody, part only; not given: Variable domains, not shown: another chain or arm of the molecule; small tags and cut ends)
constant: B1 constant with R197Q, S322Y
B23: feline IgG1a Fc mutant Q311M, S428L (antibody, part only; not given: Variable domains, not shown: another chain or arm of the molecule; small tags and cut ends)
constant: B1 constant with R197M
B24: feline IgG1a Fc mutant S428M, S252W (antibody, part only; not given: variable domains and light chain, not shown: another chain or arm of the molecule; small tags and cut ends)
constant: B1 constant with S138W, R197Q, L316M
B25: feline IgG1a Fc mutant S428Y, S252W (antibody, part only; not given: Variable domains, not shown: another chain or arm of the molecule)
constant: B1 constant with S138W, R197Q, L316Y
B26: feline IgG1a Fc mutant S428Y, S252H (antibody, part only; not given: Variable domains, not shown: another chain or arm of the molecule; small tags and cut ends)
constant: B1 constant with S138H, R197Q, L316Y
B27: feline IgG1a Fc mutant Q311Y, S428Y (antibody, part only; not given: Variable domains, not shown: another chain or arm of the molecule)
constant: B1 constant with R197Y, L316Y
B28: feline IgG1a Fc mutant Q311M, S428M (antibody, part only; not given: Variable domains, not shown: another chain or arm of the molecule; small tags and cut ends)
constant: B1 constant with R197M, L316M

Target: Feline FcRn complex (FcRn-alpha subunit and beta-microglobulin) (feline)
Experiment: SPR (Biacore), feline FcRn captured on SA chip, IgG flowed over, pH 6

Kd	Binder
5.47 nM	B1
6.51 nM	B2
7.19 nM	B3
3.85 nM	B4
4.81 nM	B5
8.08 nM	B6
4.74 nM	B7
6.16 nM	B8
5.94 nM	B9
6.52 nM	B10
5.9 nM	B11
5.72 nM	B12
2.27 nM	B13
6.35 nM	B14
4.66 nM	B15
6.58 nM	B16
5.73 nM	B17
5.46 nM	B18
6.62 nM	B19
3.09 nM	B20
8.58 nM	B21
0.933 nM	B22
6.44 nM	B23
4.65 nM	B24
2.95 nM	B25
6.41 nM	B26
5.57 nM	B27
5.66 nM	B28

Target: Feline FcRn complex (FcRn-alpha subunit and beta-microglobulin) (feline)
Experiment: SPR (Biacore), feline FcRn captured on SA chip, IgG flowed over, pH 7.4

Kd	Binder
22.2 nM	B22
